This data set can be described thus: yeast display, Sf9 membrane polyspecificity reagent, FACS + sequencing; frameworks hold sequencing errors. Summed up:
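Galactose induction of a Saccharomyces cerevisiae BJ5465 synthetic nanobody display library ran 36–48 hours. The cells were then stained for 1 hour at 4 °C with 10% biotinylated, detergent-solubilized Sf9 membrane reagent, pulled down on streptavidin microbeads and FACS-sorted into low and high (top ~1%) gates on expression and reagent-binding fluorescence. Labels for polyreactivity follow the gate of origin.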
Regarding “QVQLVESGGGLVQAGGSLRLSCAAYGSIFETYVMGWYRQAPGKERELVAAINSGGSTNYADSVKGRFTISRDNAKNTVYLQMNSLKPEDTAVYYCNADWFTPAQPWYRYFIRYDYWGQGTQVTVSS”, the “polyreactivity (PSR sort gate)” value is listed as “low polyreactivity”.
Consider “QVQLVESGGGLVQAGGSLSLSCAASGNTFPYYAMGWYRPAPGKERELVAAIRAGGGSTYYADSVKGRFTISRDNAKNTVYLQMNSLKPEDTAVYYCNADSDYNQYYLAVIHSILDYWGHGTQVTVSS”, for which the “polyreactivity (PSR sort gate)” value is given as “low polyreactivity”.
As to “QVQLVESGGGLVQAGGSLRLSCAASGLTFRWYAMGWYRQAPGKERELVAAISSTGRTNYADSVKGRFTISRDNAKNTVYLQMNSLKPEDTAVYYCNKTQEFVHKYELDYWGQGTQVTVSS”, the “polyreactivity (PSR sort gate)” value was “low polyreactivity”.
The same measure for “QVQLVESGGGLVQAGGSLRLSCAASGRTLQQYVMGWYRQAPGQERELVAAITRGGRTNYADSVKGRFTISRDNAKNTVYLQMNSLNPEDTAVYYCNTRYPSRLVAWLDYWGQGTQVTVSS”: “low polyreactivity”.
Then “QVQLVESGGGLVQAGGSLRLSCPASGRTFNWNAMGWYRKAPGKERELVADISIRGGSTNYADSVKGRFTISRDNAKNTVYLQMNSLKPEDTAVYYCAAEYYDSGNDYWGQGTQVTVSS”, with “low polyreactivity”.
Then “QVQLEESVGGLDQAVGSLRLSCAASGFTFNRYTMGWYRQAPGKEREFVASITRSGGSTYYADSVKGRFTISRDNAKNTVYLQMNSLTPEDTAVYYCAPVYQYSSRYDHWGQGTQVTVSS”, with “high polyreactivity”; and “QLQLVESGGGLVQAGGSLRLSCAASGFIFHRNAMGWYRQAPGKERELVAAISGSGGSTYYADSVNGRFTISRDNAKNTVYLQMNSLKPEDTAVYYCAKRGRSTYGYDYWGQGTQVNVSS”, with “high polyreactivity”; and “QVQLVESGGGLVQAGGSLRLSCAASGFIFDDNAMGWYRQAPGKERELVAAITSGGGSTYYADSVKGRFTISRDNAKNTVYLQMNSLKPEDTAVYYCARDQTWSYQPWYYLSYPQYEYWGQGTQVTVSS”, with “low polyreactivity”.
Consider “QVQLVESGGGLVQAGGSLRLSCAASGSTFPGNAMGGSRQAAGKERELVASISGGGDSTYYADSVKGRFTISRDNAKNTVYLQMNSRKPEDTAVYYCAADYRQEPGYTGYYYWGQGTQVTVSS”, for which the “polyreactivity (PSR sort gate)” value is “low polyreactivity”.
Then “QVQLVESGGGLVQAGGSLRLSCAASGRTFNIYAMGWYRQAPGKVRELVAAISSGGSTYYADSVKGRFTISRDNAKNTVYLQMNSLKPEDTAVYYCAAVEFELRGDYWGQGTQVTVSS”, with “low polyreactivity”.
The same measure for “QLQLVESGGGLVQAGGSLRLSCAASGRTFYVNAMGWYRQAHGKERELVARISSSGITYYAVSVKGRFTISRDNAKNTVYLQMNSLKPEDTAVYYCAAGPWFYYWGQGTQVTVSS”: “low polyreactivity”; for “QVQLVESGGGLVHAGGSLRLSCAASGYSSSQNAMVWYRQEPGKERELLARITTDGTSTYYADSVKGRFTISRDNAKNTVYLHMNSLKPEDTAVYYCNARYPAYVVRSWYPYAYYYWGQGTQVTVSS”: “low polyreactivity”.
The same measure for “QVQLVESGGGLVQAGGSLRLSCAASGTFYTNAMGWYRPAPGKERELVAAITSGGSTYYADSVKGRFTISRDNAKNTVYLQMNSLKPEDTAVYYCAADPVSHGYDIDYDYWGQGTQVTVSS”: “low polyreactivity”; for “QVQLVESGGGLVQAGGSLRLSCAASGSIISPNAMGWYRQAPGKERELVATISFSGGRTYYADSVKGLVTISRDNAKNTVYLQMNSLKPEDTAVYYCAKAYYYTDMDYWGQGTQVTVSS”: “low polyreactivity”; for “QVQLVESGGGLVQAGGSLRLSCAASGSIFTRYAMGGYRQAPGKERELVAAITAGGSSPYYADSVKGRFTISRDNAKNTVYLQMNSLKPEDTAVYYCNAVWWHPTDYDYWGQGSQVTVSS”: “low polyreactivity”.
With “QVQLVESGGGLVQAGGSLRLSCAASGFTFGTYDMGWYRQAPGKERELVAAISTSGGSTYYADSVKGRFTISRDNAKNTVYLQMNSLKPEDTAVYYCAARIVYYGGYGYWGQGTQVTVSS”, the “polyreactivity (PSR sort gate)” value is recorded as “high polyreactivity”.
Then “QVQLVESGGGLVQAGGSLRLSCAASGRIFRYYVMGWYRQAPGKERELVAAITSGGSTYYADSVKGRFTISRDNAKNTVYLQMNSLKPEDTAVYYCAAETTLPIFYYTQVNYWGQGTQVTVSS”, with “low polyreactivity”; and “QVQLVESGGGLVQAGGSLRLSCAASGRTFNVNVMGWYRQAPGKERELVAAIRYTGGSTYADSVKGRFTISRDNAKNTVYLQMNSLKPEDTAVYYCNADTFFPFDHGMDYWGQGTQVTVSS”, with “low polyreactivity”; and “QVQLVESGGGLVQAGGSLRLSCAASGRTFRKYTMGWYRQAPGKERELVAAISSRGGSTYYADSVKGRFTISRDNAKNTVYLQMNSLKPEDTAVYYCATDYITPSSEGDYWGQGTQVTVSS”, with “high polyreactivity”.
The same measure for “QVQLVESGGGLVQAGGSLRLSCAASGSIIHTNTMGWYRQAPGKERELVAAISGGSTYYADSVKGRFTISRDNAKNTVYLQMNSLKPEDTAVYYCAAGWSVWYQDFDYWGQGSQVTVSS”: “high polyreactivity”.
Regarding “QVQLVESGGGLVQAGCSLRLSCAASGRTFVQYFMGWYRQAPGKERELVAAITSSGGSTYADSVKGRFTISRDNAKNTVFLHMNSLKPEDTAVYYCAADYLDGVGDVEHDYWGQGTQVTVSS”, the “polyreactivity (PSR sort gate)” value is “low polyreactivity”.
For the sequence “QVQLEESGGGLVQAGGSLRLSCAASGSTFGYNAMGWYRQAPGKERELVAAITSGGRTKYADSVKGRFTISRDNAKNTVYLQMNSLKPEDTAVYYCATDQSYRFLFYRAYDMDYWGQGTQVTVSS”, the “polyreactivity (PSR sort gate)” value is “high polyreactivity”.
The same measure for “QVQLVESGGGLVQAGGSLRLSCAASGITLKPNAMGWYRQAPGKERELVAAIDSGGSTNYADSVKGRFTISRDNAKNTVYLQMNSLKPEDTAVYYCAAPYQDRDLQVSYSTYEGGYWGQGTQVTVSS”: “low polyreactivity”; for “QVQLVESGGGLLQAGGSLRLSCAASGFTFSFYARGWYRQAPGKERELVAAISYSGGITYYADSVKGRFTISRDNAKNTVYLQINSLKPEDTAVYYCAAVPGISVGRQPGYDYDYWGHGTQVTVSS”: “low polyreactivity”.
Then “QVQLVESGGGLVQAGGSLRLSCAASGFTFNYYAMGSYRQAPGKERELVAAITWRSGRTSYADSVKGRFTISRDNAKNTVYLQMNSLKPEDTAVYYCAKYPIYSGLTRYGYWGQGTQVTVSS”, with “high polyreactivity”; and “QVHLVESGGGLVQAGGSLRLSCAASGSIFSYYGMGWYRQAPGKERELVAAITRSTGSTYYADSVKGRFTISRDYAKNTVYLQMNSLKPEDTAVYYCATEYVVLWEFDYWGQGTQVTVSS”, with “low polyreactivity”.
Then “QVQLVESGGGLVQAGGSLRLSCAASGLIFGYNAMGWYRQAPGKEREFVAGISVIDGRTYYADSVKGRFTISRDNAKNTVYLQMNSLIPEDTAVYYCAADRWYKYYFLTYGYWGQGTQVTVSS”, with “low polyreactivity”; and “QVQLVESGGGLVQAGGSLRLSCAASGSIFGQYVMGWYRQAPGKERELVAAITRRGGTTYYADSVKGRFTISRDNAKNTVYLQMNSLKPEDTAVYYCAARVRVPQTARLHEYWGQGTQVTVSS”, with “high polyreactivity”.
For the sequence “KVQLVESGGGLVQAGGSLRLSCAASGLIFPAYTIGWYRQAPGKEREMVAAISRSGGSTYYADSVKGRFTISRDNAKYTVYLEMNSLKPEDTALYYCAAGYPGYDSYYKFYYWGQGTQVTVSS”, the “polyreactivity (PSR sort gate)” value is on record as “high polyreactivity”.
Then “QVQLVESGGGLVQAGGSLRLSCAASGFTLKSYAMGWYRQAPGKERELVASISRRGGSTYYADSVKGRFTISRDNAKNTVYLQMNSLKPEDTAVYYCNADYVRFPGNAYDYWGQGTQVTVSS”, with “high polyreactivity”.
Then “QVQLVESGGGLVQAGGSLRLSCAASGSTFKYYVMGWYRQAPGKERELVAAITRSGSTNYADSVKGRFTISRDNAKNTVYLQMNSLKPEDTAVYYCAAERALSRYGYWGQGTQVTVSS”, with “low polyreactivity”.
The same measure for “QVQLVESGGGLVLAGGSLRLSCAASGSNFSPNAMGWYRKAPGKERELVAAITYRGANTYYADSVKGRFTISRDYAKNTVYFLMNSLKPEDTAVYFCAAEYAYHHVGFGYWGQGTQVTVSS”: “low polyreactivity”; for “QVQHVESRGGLVQAGGSLRLSCAASGSIFFAYAMGWDRQGPGKEREFVAAISASGGSTSYADSVKGRFTISRDNAKNTVYLQMNSLKPEDTAVYYCATEHSVTTYDYWGQGTQVTVSS”: “low polyreactivity”; for “QVQLVESGGGLVQAGGSLRLRSAASGYTFSIYAMGRYRQATGKERELVASISWSAGNTYYADYVKGRFTFSLDNAKNTVYLQMNSLKPEDTAVYYCAVPRRLIWYRPSSYDYWGQGTQVTVSS”: “low polyreactivity”.
On to “RVQLQESGGGLVQAGGSLRLSCAASGTIFIRGDMGWYRQAPGKEREFVATIDTGSNTYYADSEKGRFTISRDNAKNAVSLQMICLKPGDTAVYYCVVDYQLSGRLRYWGQGTQVTLSS”, for which the “polyreactivity (PSR sort gate)” value was “low polyreactivity”.
The same measure for “QVQLVESGGGLVQAGGSLRLSCAASAFILYRYAMGWYRQAPGKERELVAAISRTGGSTYYADSVKGRFTISRDNAKNTVYLQMNSLKPEDTAVYYCNARSSYGLSYRQYGYWGQGTQVTVSS”: “high polyreactivity”; for “QVQLVESGGGLVQAGGSLRLSCAASGRTFRPYAMGWYRQAPGKERELVAAITGGTRTYYADSVKGRFTISRDNAKNTVYLQMNSLKPEDTAVYYCAKGDFFSKHDYLGQGTQVTVSS”: “low polyreactivity”.
The same measure for “QVQLVESGGGLVQAGGSLRLSCAGSGRIFSENAMGWYRQAPGKERELVAAISVSGGSTYYADSVKGRFTISRDNAKNTVYLQMNSLKPEDTAVYYCAAEYLAYYSGYDYWGQGTQVTVSS”: “high polyreactivity”.
“QVQLVESGGGLVQAGGSLRLSCAASGITLYRYVMGWYRQAPGKERELVAAISGRGTSTYYADSVKGRFPISRDNAKNTVYLQMNSLKPEDTAVYYCNAEYTKTGALVIPYTYYYAEDYWGQGTQVTVSS”: the “polyreactivity (PSR sort gate)” value is listed as “low polyreactivity”.
The same measure for “QVQLVESGGGLVQAGGSLRLSCAASGSTFYTNAMGWYRQAPGKERELVAAISYGGGSTYYADSVKGRFTISRDNAKNTVYLQMHSLKPEDTAVYYCAARAPEKSWWRYRYGYWGQGTQVTVSS”: “high polyreactivity”.
For “QVQLVESGGGLVQAGGSLRLSCAASGSTFVGYAMGWYRQAPGKERELVAAISERGGRTYYADSVKGRFTISRDNAKNTVYLQMNSLKPEDTAVYYCAAYGRYPRLYTYYYWGQGTQVTVSS”, the “polyreactivity (PSR sort gate)” value is listed as “high polyreactivity”.

The values are drawn from the nanobody polyreactivity screen of Harvey et al. (2022).
